# Measured values taken from publication PMC4354731.
# What was measured:
# [1] = substrate: COC1=C(OC)C(=O)C(C)=CC1=O; test: succinate:Q0 oxidoreductase steady-state kinetics in membranes; type: biochemical, Escherichia coli; settings: [3Fe-4S], [4Fe-4S], [2Fe-2S] clusters; FAD; heme b
# [2] = substrate: CC(C)=CCC1=C(O)C(=O)c2ccccc2C1=O; test: lapachol:fumarate oxidoreductase steady-state kinetics in membranes; type: biochemical, Escherichia coli; settings: [3Fe-4S], [4Fe-4S], [2Fe-2S] clusters; FAD; heme b
protein,measurement,setting,value
"succinate dehydrogenase (SdhCDAB), SdhB subunit (Escherichia coli K-12) (protein) chain 1: MRLEFSIYRYNPDVDDAPRMQDYTLEADEGRDMMLLDALIQLKEKDPSLSFRRSCREGVCGSDGLNMNGKNGLACITPISALNQPGKKIVIRPLPGLPVIRDLVVDMGQFYAQYEKIKPYLLNNGQNPPAREHLQMPEQREKLDGLYECILCACCSTSCPSFWWNPDKFIGPAGLLAAYRFLIDSRDTETDSRLDGLSDAFSVFRCHSIMNCVSVCPKGLNPTRAIGHIKSMLLQRNA chain 2: MIRNVKKQRPVNLDLQTIRFPITAIASILHRVSGVITFVAVGILLWLLGTSLSSPEGFEQASAIMGSFFVKFIMWGILTALAYHVVVGIRHMMMDFGYLEETFEAGKRSAKISFVITVVLSLLAGVLVW chain 3: MVSNASALGRNGVHDFILVRATAIVLTLYIIYMVGFFATSGELTYEVWIGFFASAFTKVFTLLALFSILIHAWIGMWQVLTDYVKPLALRLMLQLVIVVALVVYVIYGFVVVWGV",Km,[1],150 µM
same,kcat,[1],33.9 s⁻¹
same,Km,[2],100 µM
same,kcat,[2],11.9 s⁻¹
